Assay results as given in the Human Domainome abundance scans (Beltran et al. 2025).
± gives the uncertainty stated by the source.

B1: Advillin, residues 785 to 819; numbered along this chain, O75366 (parent)
chain: LSEQDFVSVFGITRGQFAALPGWKQLQMKKEKGLF

Variants of: B1
Assay: abundance fitness (aPCA) (normalised: wild type 0, dead -1); higher = more abundant; growth selection in yeast, the domain comes from the species named
Conditions: Homo sapiens

Variant | abundance fitness
LSEQDFVSVFGITRGQFAALPGWKQSQMKKEKGLF | 0.069 ± 0.07
LSEQDFVSVFGITRGQFAALPGWKQGQMKKEKGLF | -0.146 ± 0.067
LSEQDFVSVFGITRGQFAFLPGWKQLQMKKEKGLF | -0.245 ± 0.26
LSEQDFVSVFGITRGQFATLPGWKQLQMKKEKGLF | -0.254 ± 0.069
LSEQDFVSYFGITRGQFAALPGWKQLQMKKEKGLF | -0.156 ± 0.17
LSEQDFVSVFGWTRGQFAALPGWKQLQMKKEKGLF | -0.999 ± 0.11
LSEQDFVSVFGITRGQTAALPGWKQLQMKKEKGLF | -0.486 ± 0.12
LSEQDFVSVFGITRGQGAALPGWKQLQMKKEKGLF | -0.37 ± 0.055
LSEQDFVSVFGITRGQRAALPGWKQLQMKKEKGLF | -0.554 ± 0.058
LSEQDFVSVFGITRGQMAALPGWKQLQMKKEKGLF | -0.249 ± 0.081
LSEQDFVSVFGITRGQFAAAPGWKQLQMKKEKGLF | -0.593 ± 0.077
LSEQDFVSVFGITRGQFAATPGWKQLQMKKEKGLF | -0.424 ± 0.079
LSEQDFVSVFGITRGQFAAWPGWKQLQMKKEKGLF | -0.91 ± 0.16
LSMQDFVSVFGITRGQFAALPGWKQLQMKKEKGLF | -0.461 ± 0.13
LSLQDFVSVFGITRGQFAALPGWKQLQMKKEKGLF | -0.304 ± 0.057
LSGQDFVSVFGITRGQFAALPGWKQLQMKKEKGLF | -0.366 ± 0.061
LSPQDFVSVFGITRGQFAALPGWKQLQMKKEKGLF | -0.268 ± 0.18
LSYQDFVSVFGITRGQFAALPGWKQLQMKKEKGLF | -0.543 ± 0.15
LSTQDFVSVFGITRGQFAALPGWKQLQMKKEKGLF | -0.092 ± 0.085
LSNQDFVSVFGITRGQFAALPGWKQLQMKKEKGLF | 0.165 ± 0.12
LSEQDFVSVFGITAGQFAALPGWKQLQMKKEKGLF | -0.121 ± 0.06
LSEQDFVSVFGITPGQFAALPGWKQLQMKKEKGLF | -0.116 ± 0.11
LSEQDFVSVFGITDGQFAALPGWKQLQMKKEKGLF | -0.431 ± 0.071
LSEQDFVSVFGITHGQFAALPGWKQLQMKKEKGLF | -0.262 ± 0.078

Variant | abundance fitness
LSEQDFVSVFGITKGQFAALPGWKQLQMKKEKGLF | 0.145 ± 0.12
LSEQDFVSVFGITQGQFAALPGWKQLQMKKEKGLF | -0.037 ± 0.074
LSEQDFVSVFGITRGQFAALPGWKQLWMKKEKGLF | -0.37 ± 0.066
LSEQDFVSVFGITRGQFAALPGWKQLCMKKEKGLF | -0.432 ± 0.084
LSEQDFVSVFGITRGQFAALPGWKQLKMKKEKGLF | -0.064 ± 0.063
LSEQDFVSVFGITRGQFAALRGWKQLQMKKEKGLF | -0.614 ± 0.056
LSEQDFVSVFGITRGQFAALMGWKQLQMKKEKGLF | -0.64 ± 0.16
LSEQDFVSVFGITRGQFAALHGWKQLQMKKEKGLF | -0.534 ± 0.085
LSEQDFVSVFGITRGQFAALIGWKQLQMKKEKGLF | -0.536 ± 0.15
LSEQDFVSVFGITRGQFAALKGWKQLQMKKEKGLF | -0.413 ± 0.095
LSEQDFVSVFGITRGQFAALEGWKQLQMKKEKGLF | -0.246 ± 0.057
LSEQDFVSVFGITRGQFAALPGWKQLQMKPEKGLF | -0.453 ± 0.069
LSEQDFVSVFGITRGQFAALPGWKTLQMKKEKGLF | -0.405 ± 0.15
LSEQDFVSVFGITRGQFAALPGWKRLQMKKEKGLF | -0.187 ± 0.07
LSEQDFKSVFGITRGQFAALPGWKQLQMKKEKGLF | -0.384 ± 0.2
LSEQQFVSVFGITRGQFAALPGWKQLQMKKEKGLF | -0.204 ± 0.077
LSEQDFVSVCGITRGQFAALPGWKQLQMKKEKGLF | -0.31 ± 0.082
LSEQDFVSVAGITRGQFAALPGWKQLQMKKEKGLF | -0.398 ± 0.07
LSEQDFVSVFKITRGQFAALPGWKQLQMKKEKGLF | -0.453 ± 0.11
LSEQDFVSVFVITRGQFAALPGWKQLQMKKEKGLF | -0.537 ± 0.082
LSEQDFVSVFGITRGQFAALPGWKQLQMHKEKGLF | -0.099 ± 0.11
LSEQDFVSVFGITRGQFAALPGWKQLQMIKEKGLF | -0.218 ± 0.12
LSEQDFVSVFGITRGQFAALPGWKQLQMQKEKGLF | 0.026 ± 0.07
CSEQDFVSVFGITRGQFAALPGWKQLQMKKEKGLF | -0.279 ± 0.15

Variant | abundance fitness
LSEQDFVSVFGITRGQFHALPGWKQLQMKKEKGLF | -0.362 ± 0.19
LSEQDFVSVFGITREQFAALPGWKQLQMKKEKGLF | 0.238 ± 0.064
LSEQDFVSVFGITRNQFAALPGWKQLQMKKEKGLF | -0.05 ± 0.11
LSEQDFVSVFGITRGQFAALPGWKQLQMKKERGLF | 0.06 ± 0.052
LSEQDFVSVFGITRGQFAALPGWKQLQMKKEGGLF | -0.156 ± 0.07
LSEQDFVSVFGITRGQFAALPGWKQLQMKKGKGLF | -0.283 ± 0.055
LSEQDFVSVFGIVRGQFAALPGWKQLQMKKEKGLF | -0.53 ± 0.08
LSEQDFVSVFGIIRGQFAALPGWKQLQMKKEKGLF | -0.475 ± 0.32
LSEQDFVSVFGITRGQFAALPGWKQLQMKKEKLLF | -0.305 ± 0.083
LSEQDFVSVFGITRGQFAALPGWKQLQMKKEKALF | -0.195 ± 0.059
LCEQDFVSVFGITRGQFAALPGWKQLQMKKEKGLF | -0.175 ± 0.087
LQEQDFVSVFGITRGQFAALPGWKQLQMKKEKGLF | -0.416 ± 0.1
LSEADFVSVFGITRGQFAALPGWKQLQMKKEKGLF | -0.064 ± 0.059
LSEEDFVSVFGITRGQFAALPGWKQLQMKKEKGLF | 0.018 ± 0.09
LSENDFVSVFGITRGQFAALPGWKQLQMKKEKGLF | -0.317 ± 0.19
LSEQDFVSVFGITRGQFAALPMWKQLQMKKEKGLF | -0.084 ± 0.098
LSEQDFVSVFGITRGQFAALPAWKQLQMKKEKGLF | -0.016 ± 0.083
LSEQDFVSVFGITRGQFAALPLWKQLQMKKEKGLF | -0.074 ± 0.091
LSEQDFVSVFGITRGQFAALPTWKQLQMKKEKGLF | 0.005 ± 0.086
LSEQDFVRVFGITRGQFAALPGWKQLQMKKEKGLF | 0.023 ± 0.069
LSEQDFVTVFGITRGQFAALPGWKQLQMKKEKGLF | -0.024 ± 0.068
LSEQDFVGVFGITRGQFAALPGWKQLQMKKEKGLF | -0.026 ± 0.058
